{"source": "paper PMC3581551", "about": "“The N-Terminal β-Sheet of Peroxiredoxin 4 in the Large Yellow Croaker Pseudosciaena crocea Is Involved in Its Biological Functions” (PLoS ONE, 2013)", "biological_target": "the molecule itself", "test": "crystal structure; reduced form, 1.90 Å, space group C2; five subunits in the asymmetric unit (two dimers and a monomer), decamer (pentamer of dimers) by crystal symmetry; crystals at 16°C, 10% PEG MME 5,000, 0.1 M HEPES-NaOH pH 8.0, with 14 mM β-mercaptoethanol and 10 mM DTT"}
{"protein": "Pseudosciaena crocea peroxiredoxin 4 (Prx4), mature protein without the 29-residue signal peptide (enzyme) EEAAHVKNSQCHNYAGGHVYPGEAFRVPVSDHSLHLSKAKISKPAPQWEGTAVINGEFKELKLSDYRGKYLVFFFYPLDFTFVCPTEIIAFSDRVHEFRAINTEVVACSVDSQFTHLAWIITPRKQGGLGPMKIPLLSDLTHQISKDYGVYLEDQGHTLRGLFIIDEKGVLRQITMNDLPVGRSVDETLRLVQAFQYTDKHGEVCPAGWKPGSDTIIPDPSGKLKYFDKMK", "values": [{"measurement": "stoichiometry N", "result": 10}]}
